{"source": "paper PMC12030383", "about": "“Pharmacokinetics, Pharmacodynamics, and Bioequivalence of Test Insulin Glargine Versus Reference Preparation (Lantus®) in Healthy Male Volunteers—By Euglycemic Clamp Technique” (Pharmaceutics, 2025)", "origin": "cited, not measured here", "description": "After subcutaneous injection, the acidic solution in insulin is neutralized so that the insulin analog forms a precipitated microscopic deposit at the injection site, thus allowing for a slow and continuous release of insulin glargine from the injection site into the bloodstream, resulting in a smooth and predictable blood concentration without peaks for up to 24 h. Therefore, insulin glargine can be administered ..."}
{"substance": "Insulin glargine", "values": [{"measurement": "solubility in acidic solutions", "setting": "acidic solutions", "result": "completely soluble"}, {"measurement": "solubility in neutral solutions", "setting": "neutral solutions", "result": "low solubility"}]}
